Laboratory results taken from PMC4486954, “Highly homologous proteins exert opposite biological activities by using different interaction interfaces” (Scientific Reports, 2015).

T1: HLT-iASPP Pro (human, UniProt Q8WUF5 1-602)
T1 construct: iASPP (human), proline rich (Pro) domain, residues 1-602 of the 828-residue protein, Swiss-Prot Q8WUF5; Cloned EcoRI/NotI into pHis parallel 2HLT; calculated Mw with tag 75.9 kDa; also called iASPP Pro 1-602; iASPP 1-602; source: E. coli Rosetta2, purified (Nickel Sepharose, size exclusion chromatography); not shown: HLT (His tag, lipoyl domain, TEV protease cleavage site), N-terminal, kept
T1 sequence (looked up): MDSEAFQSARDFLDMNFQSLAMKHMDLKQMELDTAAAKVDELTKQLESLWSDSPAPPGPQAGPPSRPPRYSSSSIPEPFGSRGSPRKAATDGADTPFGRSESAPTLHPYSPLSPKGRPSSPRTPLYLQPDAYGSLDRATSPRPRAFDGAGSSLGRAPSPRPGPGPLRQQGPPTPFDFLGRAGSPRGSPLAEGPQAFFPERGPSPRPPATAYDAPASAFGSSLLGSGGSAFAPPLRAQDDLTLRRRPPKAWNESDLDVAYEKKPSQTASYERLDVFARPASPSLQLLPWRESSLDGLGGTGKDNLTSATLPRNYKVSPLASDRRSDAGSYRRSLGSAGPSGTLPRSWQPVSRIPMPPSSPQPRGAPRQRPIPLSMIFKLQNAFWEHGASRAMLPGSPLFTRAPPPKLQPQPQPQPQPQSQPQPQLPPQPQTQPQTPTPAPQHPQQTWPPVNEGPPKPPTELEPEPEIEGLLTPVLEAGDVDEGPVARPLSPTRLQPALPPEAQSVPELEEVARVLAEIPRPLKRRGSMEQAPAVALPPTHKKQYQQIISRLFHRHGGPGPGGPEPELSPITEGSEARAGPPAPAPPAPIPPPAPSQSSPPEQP

T2: iASPP Ank-SH3 (Homo sapiens, UniProt Q8WUF5)
T2 construct: (2) iASPP Ank-SH3 603-828; HLT tag (His tag + lipoyl domain + TEV site) (N, cleaved yes); made in house; host or cells: E. coli HMS 174 (Novagen)
T2 sequence (Q8WUF5 603-828): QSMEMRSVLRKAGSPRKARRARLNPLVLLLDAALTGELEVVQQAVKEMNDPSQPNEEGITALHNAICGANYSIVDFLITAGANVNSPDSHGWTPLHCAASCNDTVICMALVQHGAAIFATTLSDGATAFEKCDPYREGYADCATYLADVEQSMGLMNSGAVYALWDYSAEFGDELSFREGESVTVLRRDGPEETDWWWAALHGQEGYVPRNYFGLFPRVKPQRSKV

B1: iASPP Ank-SH3 (domain or fragment, human, UniProt Q8WUF5 603-828, looked up)
chain: T2 sequence (Q8WUF5 603-828)
notes: iASPP (human), four ankyrin repeats and SH3 domain, residues 603-828, Swiss-Prot Q8WUF5; also called iASPP Ank-SH3 603-828; cleaved iASPP Ank-SH3; source: E. coli HMS 174, purified (Nickel Sepharose, TEV cleavage, second Nickel column, size exclusion chromatography); not shown: HLT (His tag, lipoyl domain, TEV protease cleavage site), N-terminal, cleaved
B2: HLT-iASPP Pro: recombinant iASPP Pro 1-602 with HLT (His-lipoyl domain-TEV) tag (protein)
chain: T1 sequence (looked up)
modifications: left off: HLT (His tag, lipoyl domain, TEV protease cleavage site), N-terminal, kept
notes: recombinant iASPP Pro 1-602 with HLT (His-lipoyl domain-TEV) tag

How the values were obtained:
[1] = target: T1, HLT-iASPP Pro; assay: pull-down; Nickel-NTA beads loaded with HLT-iASPP Pro (1.7 uM), HLT (31 uM) or buffer, 1 h, 4 °C, 40 mM imidazole; then iASPP Ank-SH3 (80 ul of 80 uM, diluted in 1 ml 25 mM phosphate pH 7.0, 10% glycerol, 25 mM imidazole, 100 mM NaCl), 2 h, 4 °C; three washes; eluted by boiling in SDS; Coomassie-stained SDS-PAGE; settings: both partners purified
[2] = target: T2, iASPP Ank-SH3; assay: Nickel affinity pulldown of iASPP Ank-SH3 by HLT-iASPP Pro; type: binding; settings: Nickel-NTA beads with HLT-iASPP Pro 1 h at 4 °C, then iASPP Ank-SH3 2 h at 4 °C; SDS-PAGE coomassie staining
Method: After purifying the recombinant HLT-iASPP Pro and iASPP Ank-SH3 we tested whether the recombinant proteins interact using Nickel affinity pulldown assay. Nickel-NTA beads were incubated for one hour with HLT-iASPP Pro or with buffer or HLT alone. Then the beads were incubated with iASPP Ank-SH3 for two hours.
Figure 4 HLT-iASPP Pro interacts with iASPP Ank-SH3 in vitro. Nickel affinity pulldown of iASPP Ank-SH3 by HLT-iASPP Pro, SDS PAGE gel coomassie staining results. Nickel-NTA beads were incubated with HLT-iASPP Pro or with buffer or HLT fusion domain alone, for 1 h at 4 °C. The samples were centrifuged and then incubated with iASPP Ank-SH3 for 2 h at 4 °C. The samples were centrifuged again and the beads were washed 3 times. The beads were eluted by boiling them in SDS solution. Ank-SH3 eluted from the beads only in the presence of HLT-iASPP Pro.
30 μl Nickel-NTA beads (Qiagen) were incubated with: (1) 500 μl buffer C (50 mM Phosphate buffer pH = 7.0, 300 mM NaCl, 10% glycerol, 0.02% NaN3 and 0.001% Tween 20); (2) 250 μl 31 μM HLT; (3) 2 ml 1.7 μM HLT-iASPP Pro (in buffer C) for 1 hour with gentle mixing at 4 °C and in the presence of 40 mM imidazole. The samples were centrifuged (2 min 3500 RPM), and washed with buffer C (5 min, 4 °C, gentle mixing). […] Samples were analyzed on a 10% SDS-PAGE gel.

Molecule	binding result [1]	pulldown of iASPP Ank-SH3 [2]
B1	binds	
B2		retrieved
